# Tests used:
# CA724 胃癌抗原 (B72.3抗原) [1] = test: direct ELISA, antigen coated at 100 ng/mL, pNPP substrate read through the fused AP; still in linear range, no plateau
# CA724 胃癌抗原 (B72.3抗原) [2] = test: ELISA, antigen coated at 100 ng/mL, HRP goat anti-mouse Fab secondary, OD450
# CA724 胃癌抗原 (B72.3抗原) [3] = test: direct ELISA, antigen coated at 100 ng/mL, pNPP substrate read through the attached ALP; plateau value
# Fab抗体与碱性磷酸酶融合蛋白(Fab)2-AP (CA724-B72.3 Fab fused to calf intestinal alkaline phosphatase, Fab:AP monomer 1:1), sequence (light, form in doubt): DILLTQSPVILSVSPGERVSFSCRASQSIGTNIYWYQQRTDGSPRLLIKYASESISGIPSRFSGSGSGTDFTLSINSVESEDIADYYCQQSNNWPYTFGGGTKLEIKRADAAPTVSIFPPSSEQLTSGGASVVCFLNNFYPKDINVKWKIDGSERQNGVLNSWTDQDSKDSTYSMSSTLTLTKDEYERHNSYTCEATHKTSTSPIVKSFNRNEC
吸光值 (405nm) (CA724 胃癌抗原 (B72.3抗原) [1]),fold decrease of high-end antibody activity (against the original antibody / fusion protein) (CA724 胃癌抗原 (B72.3抗原) [2]),最高吸光值 (405nm) (CA724 胃癌抗原 (B72.3抗原) [3]),Substance
1.2 OD405,–,–,"Fab抗体与碱性磷酸酶融合蛋白(Fab)2-AP (CA724-B72.3 Fab fused to calf intestinal alkaline phosphatase, Fab:AP monomer 1:1)"
–,1 倍,0.8 OD405,对照抗体化学标记ALP蛋白 (CA724-B72.3 antibody chemically labelled with alkaline phosphatase)
